Assay results as given in patent US20230183322A1 (PEKING UNIVERSITY, published 2023).
Substitutions are numbered along the chain they refer to.

B1: ABU-340 (antibody, V domains shown)
VH: EVQLVESGGGLVQPGGSLRLSCAASGFTVSSNYMNWVRQAPGKGLEWVSVIYSGGSTYYADSVKGRFTLSRDNSKNTLYLQMNSLRAEDTAVYYCARGQYDILTGYQYGAFDIWGQGTMVTVSS
VL: QSALTQPASVSGSPGQSITISCTGTSSDVGTYNLVSWYQQHPGKAPKLMIYEVSKRPSGVSNRFSGSKSGNTASLTISGLQAEDEADYYCCTYAGSSTWVFGGGTKLTVL
B2: ABU-341 (antibody, V domains shown)
VH: QVQLQESGPGLVKPSQTLSLTCTVSAGSISSDTYYWSWIRQPAGKGLEWIGRIYTTGSTIYNPSLNSRVLISADTSNNQFSLKLTSVTASDTAVYYCAAHYYSRTDAFHIWGQGTMVTVSS
VL: DIQMTQSPSSLSASVGDRVTITCRASQSIAKFLNWYQKKPGKAPNLLISTASSFQSGVPSRFSGSGSGTDYTLTISGLQPEDFATYYCQQSYSSPYTFGQGTNLEIK
B3: ABU-349 (antibody, V domains shown)
VH: EVQLVESGGGLIQPGGSLRLSCAASGFTVSRNYMSWVRQAPGKGLEWVSLIYSGGSTFYADSVKGRFTISRDNSKNTLYLQMNTLRSEDTAVYYCARDLVVYGMDVWGQGTTVTVSS
VL: DIQLTQSPSFLSASVGDRVTITCRASQGISSYLAWYQQKPGKAPKLLIYAASTLQVGVPSRFSGSGSGTEFTLTISSLQPEDFATYFCQQLNSYPFTFGPGTKVDIK
B4: ABU-351 (antibody, V domains shown)
VH: B3 VH with I12V, L50V, S56T, F58H, D72H, T84S, S87A
VL: B3 VL with V56S, R61S, F87Y, F96L, P100G, D105E
B5: ABU-355 (antibody, V domains shown)
VH: B3 VH with I12V, F27I, S30R, R31S, L50V, T84S, S87A, V100I, V101S, Y102R
VL: DIQLTQSPSSLSASVGDRVTITCRASQGISSYLAWYQQKPGKAPKLLIYAASTLQSGVPSRFSGSGSGTDFTLTISSLQPEDFATYYCQQLNGYPHSAFGPGTKVDIK
B6: ABU-356 (antibody, V domains shown)
VH: B3 VH with R31S, S35N, L50V, T84S, S87A, L99R
VL: DIQMTQSPSSLSASVGDRVTITCQASQDIINYLNWYQQKPGKAPKLLIYGASNLETGVPSRFSGGGSGTDFTFTISSLQPEDIATYYCHQYDNLPPTFGQGTRLEIK
B7: ABU-352 (antibody, V domains shown)
VH: B3 VH with F27L, R31S, S35T, L50V, D72H, T84S, S87A, L99A, V100M, V101S
VL: DIQMTQSPSSLSASVGDRVTITCRASQSISNFLNWYQQKPGKAPKLLIYAASSLQSGVPSRFSGSGSGTGFTLTISSLQPEDFATYYCQQSYSTPPDTFGQGTRLEIK
B8: ABU-371 (antibody, V domains shown)
VH: B3 VH with I12V, F27I, T28I, R31S, L50V, F58Y, T84S, S87A, V100D, V101Y
VL: B5 VL with S10F, D70E, G93S, H96P, S97F, A98T
B9: ABU-357 (antibody, V domains shown)
VH: B3 VH with I12V, F27V, R31S, L50V, F58N, T84S, S87A, V101S
VL: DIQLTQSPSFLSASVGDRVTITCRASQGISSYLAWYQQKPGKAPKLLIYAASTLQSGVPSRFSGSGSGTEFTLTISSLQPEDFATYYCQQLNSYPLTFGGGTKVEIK
B10: ABU-382 (antibody, V domains shown)
VH: EVQLVESGGGLIQPGGSLRLSCAASGITVSSNYMSWVRQAPGKGLEWVSVIYSGGSTFYSDSVKGRFTISRDNSKNTLYLQMNSLRAEDTAVYYCARERGGRFDYWGQGTLVTVSS
VL: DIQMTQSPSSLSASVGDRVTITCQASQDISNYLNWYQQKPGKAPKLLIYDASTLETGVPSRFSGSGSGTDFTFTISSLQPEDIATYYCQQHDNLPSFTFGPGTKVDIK
B11: ABU-354 (antibody, V domains shown)
VH: EVQLVESGGGLIQPGGSLRLSCAASGLIVSSNYMSWVRQAPGKGLEWVSVLYAGGSTDYAGSVKGRFTISRDNSKNTLYLQMNSLRAEDTAVYYCARDAAVYGIDVWGQGTTVTVSS
VL: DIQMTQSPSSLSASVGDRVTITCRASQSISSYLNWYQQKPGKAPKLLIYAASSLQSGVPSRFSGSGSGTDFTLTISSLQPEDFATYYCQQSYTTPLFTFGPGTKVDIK

These binders were tested against S protein of the novel coronavirus SARS-CoV-2 (SARS-CoV-2, UniProt P0DTC2 14-1273) (assay: cell-based or functional assay).
For B1, the “IC50 for neutralizing SARS-CoV-2 pseudovirus (Huh-7 cells, luciferase)” value (“IC50” for short) was under 0.5 µg/mL. B2 was tested, and the “IC50” value was under 0.1 µg/mL. With B3 the “IC50” value was under 0.1 µg/mL. For B4, the “IC50” value was under 0.1 µg/mL. With B5 the “IC50” value was under 0.1 µg/mL. B6 was tested, and the “IC50” value was under 0.1 µg/mL. B7 was tested, and the “IC50” value was under 0.1 µg/mL. With B8 the “IC50” value was under 1 µg/mL. In the case of B9, the “IC50” value is reported as under 1 µg/mL. B10 was tested, and the “IC50” value was under 0.1 µg/mL. With B11 the “IC50” value was under 0.1 µg/mL.

What follows are binders tested against biotin-labeled SARS-COV-2 RBD domain (SARS-CoV-2, UniProt P0DTC2 319-541) (assay: SPR, Biacore T200, biotin-RBD on SA chip, antibody as analyte).
With B1 the Kd was under 10 nM. With B2 the Kd was under 10 nM. B3 gave a Kd of under 1 nM. For B4, the Kd was under 10 nM. In the case of B5, the Kd is reported as under 1 nM. Binder B6 has a Kd of under 10 nM. With B7 the Kd was under 10 nM. B8 showed a Kd of under 20 nM. For B9, the Kd was under 10 nM. B10 showed a Kd of under 10 nM. Binder B11 has a Kd of under 1 nM.
